Data as given in patent US20250313625A1 (ELPISCIENCE SUZHOU BIOPHARMA, published 2025).
Changes are numbered by the printed parent chain. Numbers in names are those of the source. Read-outs that look alike come from different tables or passages of the source.

T1: human LAG3, full length, stably expressed on cells (human, UniProt P18627 23-525)
T1 construct: whole, on cells; also called CHOK1-human LAG3
T1 sequence (looked up): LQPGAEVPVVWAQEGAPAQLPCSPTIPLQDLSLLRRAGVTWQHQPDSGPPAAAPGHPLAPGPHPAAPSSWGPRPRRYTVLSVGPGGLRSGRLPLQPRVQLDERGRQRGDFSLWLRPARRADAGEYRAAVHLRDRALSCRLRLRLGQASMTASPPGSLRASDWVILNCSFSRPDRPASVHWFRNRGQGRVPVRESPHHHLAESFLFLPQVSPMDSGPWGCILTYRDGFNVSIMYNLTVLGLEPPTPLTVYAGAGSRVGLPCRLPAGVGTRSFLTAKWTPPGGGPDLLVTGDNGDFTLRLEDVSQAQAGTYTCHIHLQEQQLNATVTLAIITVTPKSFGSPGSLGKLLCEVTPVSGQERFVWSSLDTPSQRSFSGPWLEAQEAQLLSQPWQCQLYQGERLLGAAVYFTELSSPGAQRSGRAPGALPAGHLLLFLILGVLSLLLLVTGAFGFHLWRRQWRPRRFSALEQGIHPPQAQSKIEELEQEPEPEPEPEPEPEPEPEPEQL

T2: human LAG3 (form used in Octet, Biacore and HDX-MS not given) (human, UniProt P18627 23-450, limits assumed)
T2 sequence (looked up): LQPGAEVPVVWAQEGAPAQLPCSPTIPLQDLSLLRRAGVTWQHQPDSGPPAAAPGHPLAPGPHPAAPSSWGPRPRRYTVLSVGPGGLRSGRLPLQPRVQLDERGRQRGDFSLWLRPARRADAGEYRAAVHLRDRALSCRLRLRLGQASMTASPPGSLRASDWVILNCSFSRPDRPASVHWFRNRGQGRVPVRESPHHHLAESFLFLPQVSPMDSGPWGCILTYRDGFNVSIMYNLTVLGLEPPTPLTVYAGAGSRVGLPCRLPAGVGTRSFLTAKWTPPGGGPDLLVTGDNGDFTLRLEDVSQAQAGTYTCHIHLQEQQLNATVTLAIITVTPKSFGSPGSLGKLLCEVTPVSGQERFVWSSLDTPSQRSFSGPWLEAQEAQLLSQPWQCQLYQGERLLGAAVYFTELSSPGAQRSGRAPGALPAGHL

T3: mFc tagged human LAG3 ECD recombinant protein (human, UniProt P18627 23-450)
T3 construct: extracellular domain; purchased from Biointron; not shown: mouse IgG Fc (mFc) tag
T3 sequence (looked up): T2 sequence (looked up)

T4: hFc tagged human LAG3 ECD recombinant protein (human, UniProt P18627 23-450)
T4 construct: range 23-450; also called biotin labelled hFc tagged human LAG3 ECD; not shown: human IgG Fc tag
T4 sequence (looked up): T2 sequence (looked up)

T5: LAG3 D1 domain extra loop peptide (biotin labelled (site not stated))
T5 peptide: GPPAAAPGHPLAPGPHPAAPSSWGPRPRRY

T6: human LAG3 ECD recombinant protein (plate coated, tag not stated) (human, UniProt P18627 23-450)
T6 construct: extracellular domain
T6 sequence (looked up): T2 sequence (looked up)

B1: hu021.269 (antibody, V domains shown)
VH: QVQLQESGPGLVKPSQTLSLTCTVSGYSITSGYYWNWIRQHPGNKLEWIGDISYDGGNNYNPSLKNRVTISRDTSKNQFSLKLSSVTAADTAVYYCARDITLTGAMDYWGQGTTVTVSS
VL: EIVLTQSPATLSLSPGERATLSCRASESVDNYGISFMHWYQQKPGQAPRLLIYRASNRESGIPARFSGSGSRTDFTLTISSLEPEDFAVYYCQQSNKDPYTFGQGTKLEIK
notes: humanized from 021c
B2: hu021.212 (antibody, V domains shown)
VH: B1 VH with T30S, D55E
VL: B1 VL with R58L, S60T
notes: humanized from 021c
B3: hu021.279 (antibody, V domains shown)
VH: B1 VH with V2I, S15G, N36T, G56A, V68I, A89E, V93T
VL: B1 VL with R58L, R72G
notes: humanized from 021c; also called hu21.279
B4: 021c (antibody, human IgG4, V domains shown)
VH: DIQLQESGPGLVKPSQSLSLTCSVTGYSITSGYYWNWIRQFPGNKLEWMGDISYDGGNNYNPSLKNRISITRDTSKNQFFLKLNSVTTEDTATYYCARDITLTGAMDYWGQGTSVTVSS
VL: DIVLTQSPASLAVSLGQRATISCRASESVDNYGISFMHWYQQRPGQPPKLLIYRASNLESGIPARFSGSGSRTDFTLTINPVETDDVATYYCQQSNKDPYTFGGGTKLEIK
notes: human IgG4 S228P / kappa chimeric antibody; also called chimeric antibody 021; not shown: human kappa light chain constant region (pcDNA3.4-hIgGk vector)
B5: BAP-050 (antibody, V domains shown)
VH: QIQLVQSGPELKKPGETVKISCKASGFTLTNYGMNWVRQTPGKGLKWMGWINTDTGEPTYADDFKGRFAFSLETSASTASLQINNLKNADTATYFCARNPPYYYGTNNAEAMDYWGQGTAVTVSS
VL: DIQMTQTTSSLSASLGDRVTISCSSSQDISNYLNWYQQKPDGTVKVLIYYTSTLHLGVPSRFSGSGSGTDYSLTISNLELEDIATYYCQQYYNLPWTFGGGTKLEIK
notes: also called BAP-50
B6: hu029.55 (antibody, V domains shown)
VH: QVQLVESGGGLVKPGGSLRLSCAASGFTFSSYAMSWIRQAPGKGLEWVSYVTSGGDYIYYADTVKGRFTISRDDAKNSLYLQMNSLRAEDTAVYYCTRVAYDYEWYFDVWGQGTLVTVSS
VL: DIQMTQSPSSVSASVGDRVTITCKASQDVTTAVAWYQQKPGKAPKLLIYSASYRYTGVPSRFSGSGSGTDFTLTISSLQPEDFATYYCQQHDSSPWTFGQGTKLEIK
notes: humanized from 029c
B7: hu029.55.S93Q (antibody, V domains shown)
VH: B6 VH
VL: B6 VL with S93Q

Key:
[1] = biological target: T1, human LAG3, full length, stably …; assay: FACS on CHOK1 cells stably expressing human LAG3
Procedure: (§1) MFI was detected and EC₅₀ was calculated using GraphPad Prism9.0.

[2] = biological target: T2, human LAG3 (form used in Octet, Biacore …); assay: BLI (Octet), 1:1 fit
Procedure: (§2) The association and dissociation curves were fit with 1:1 binding model, and the Ka/Kd/KD values for each antibody were calculated.
as §2

[3] = biological target: T3, mFc tagged human LAG3 ECD recombinant …; assay: competitive FACS: mFc tagged human LAG3 ECD binding to MHC II on Raji cells
Procedure: (§3) Activity of the purified chimeric antibodies to block LAG3 and MHC II interaction was determined by competitive FACS assay. […] After washing, dye labeled anti-mouse Fc 2nd antibody (Sigma) was added and incubated at 37° C. for 1 hour. Fluorescence intensity was detected.

[4] = biological target: T1, human LAG3, full length, stably …; assay: FACS on 293F cells stably expressing human LAG3
Procedure: Briefly the antibodies were incubated with 2×10⁵ target cells at 4° C. for 1 hour. After washing, fluorescence labeled anti-mouse IgG 2nd antibody (Life Technologies) was added and incubated at 4° C. for 1 hour. Geometric median fluorescence intensity (MFI) was detected and EC₅₀ was calculated using GraphPad Prism9.0.
as §1

[5] = biological target: T3, mFc tagged human LAG3 ECD recombinant …; assay: competitive FACS: mFc-LAG3 ECD binding to Raji cells (MHC II)
Procedure: as §3

[6] = biological target: T2, human LAG3 (form used in Octet, Biacore …); assay: BLI (Octet), 1:1 fit; remark: listed apart in the source
Procedure: The purified chimeric antibodies were characterized for binding affinity against human LAG3 using Bio-Layer Interferometry technology (Octet system). The association and dissociation curves were fit with 1:1 binding model, and the Ka/Kd/KD values for each antibody were calculated.

[7] = biological target: T4, hFc tagged human LAG3 ECD recombinant …; assay: competitive ELISA format II: biotin hFc-LAG3 ECD binding to coated His-FGL1
Procedure: After washing, HRP labeled anti-His 2nd antibody (Sigma) was added and incubated at 37° C. for 1 hour. Then, 100 μl/well of TMB solution (Biotechnology) was added. After incubation for 15 minutes at room temperature, the reaction was stopped by the addition of 50 μl of 1N HCl. OD 450 nm was read. […] After washing, HRP labeled anti-SA 2nd antibody (Sigma) was added and incubated at 37° C. for 1 hour. Then, 100 μl/well of TMB solution (Biotechnology) was added. After incubation for 15 minutes at room temperature, the reaction was stopped by the addition of 50 μl of 1N HCl. OD 450 nm was read. […] The competition assay of format III is a competitive FACS assay. […] After washing, dye labeled anti-His 2nd antibody (Sigma) was added and incubated at 37° C. for 1 hour. Fluorescence intensity was detected.

[8] = biological target: T3, mFc tagged human LAG3 ECD recombinant …; assay: competitive ELISA: mFc tagged human LAG3 ECD binding to plate coated LSECtin ECD
Procedure: Activity of the purified chimeric antibodies to block LAG3 and LSECtin interaction was determined by competitive ELISA assay. […] After washing, HRP labeled anti-mouse Fc 2nd antibody (Sigma) was added and incubated at 37° C. for 1 hour. Then, 100 μl/well of TMB solution (Biotechnology) was added. After incubation for 15 minutes at room temperature, the reaction was stopped by the addition of 50 μl of 1N HCl. OD 450 nm was read.

[9] = biological target: T5, LAG3 D1 domain extra loop peptide; assay: ELISA format I: biotin labelled LAG3 D1 domain extra loop peptide on plate coated antibody; axis printed as Ab Conc. (nM)
Procedure: In ELISA binding assay of format I (FIG. 9A), biotin labelled LAG3 D1 domain extra loop peptide was incubated with ELISA microplate coated anti-LAG3 antibodies. After washing, HRP labeled anti-SA 2nd antibody (Sigma) was added and incubated at 37° C. for 1 hour. Then, 100 μl/well of TMB solution (Biotechnology) was added. After incubation for 15 minutes at room temperature, the reaction was stopped by the addition of 50 μl of 1N HCl. OD 450 nm was read. In ELISA binding assay of format II (FIG. 9B), biotin labelled LAG3 D1 domain extra loop peptide and anti-LAG3 antibodies were co-incubated in ELISA microplate coated with SA. After washing, HRP labeled anti-human Fc 2nd antibody (Sigma) was added and incubated at 37° C. for 1 hour. Then, 100 μl/well of TMB solution (Biotechnology) was added. After incubation for 15 minutes at room temperature, the reaction was stopped by the addition of 50 μl of 1N HCl. OD 450 nm was read.

[10] = biological target: T6, human LAG3 ECD recombinant protein …; assay: competitive ELISA format I: His-FGL1 binding to coated LAG3 ECD
[11] = biological target: T3, mFc tagged human LAG3 ECD recombinant …; assay: competitive FACS: mFc tagged human LAG3 ECD binding to MHC II on Raji cells; remark: listed apart in the source
Procedure: as §3

Binder	EC50 [1]	TOP MFI [1]	Kd [2]	koff [2]	kon [2]	%Blocking at 2 nM [3]	%Blocking at 4 nM [3]	%Blocking at 8 nM [3]	further results
B1	2.3 nM	598	6.95 nM	0.00314 s⁻¹	451000 M⁻¹ s⁻¹	9.9%	30.4%	70.2%	
B2	1.8 nM	586				4.6%	23.9%	71.5%	
B3	0.4 nM	669	3.57 nM	0.00313 s⁻¹	877000 M⁻¹ s⁻¹	20%	40.3%	98.5%	
B4	1.6 nM	620	5.34 nM	0.00271 s⁻¹	508000 M⁻¹ s⁻¹	13.7%	20.1%	76.8%	EC50 [4]: 15.6 nM; IC50 [5]: 4.2 nM; TOP blocking (%) [5]: 99.9%; Kd [6]: 6.52 nM; koff [6]: 0.000905 s⁻¹; kon [6]: 139000 M⁻¹ s⁻¹; IC50 [7]: 1.93 nM; TOP blocking (%) [7]: 82%; %Blocking at 4 nM [8]: 27.4%; %Blocking at 20 nM [8]: 91.4%; %Blocking at 100 nM [8]: 95.6%; binding result [9]: no binding (tested: about 300 nM)
B5									EC50 [4]: 1.7 nM; TOP MFI [4]: 267; Blocking ratio at 66.7 nM (%) [10]: 39.3%; binding result [9]: no binding (tested: about 300 nM)
B6			4.42 nM	0.0197 s⁻¹	4.47e+06 M⁻¹ s⁻¹	18.9%	37.5%	98.8%	%Blocking at 4 nM [11]: 26%; %Blocking at 8 nM [11]: 96.7%
B7			4.08 nM	0.0207 s⁻¹	5.06e+06 M⁻¹ s⁻¹				%Blocking at 4 nM [11]: 62.8%; %Blocking at 8 nM [11]: 99.4%
